Results on eleven molecules are retold here after patent publication US20240383984A1 (Genentech, published 2024).

The target of assay [1] is truncated FcRH5 (deletion of amino acids 1-744) with N-terminal gD tag, on cells (human) (UniProt Q96RD9). Briefly: cell-based or functional assay.
For assay [2], the target named is T1, human FcRH5 protein fragment (soluble) (human, UniProt Q96RD9 16-851).
T1 construct: whole entry named; also called soluble human FcRH5; Human FcRH5 (BIACORE analyte)
T1 sequence: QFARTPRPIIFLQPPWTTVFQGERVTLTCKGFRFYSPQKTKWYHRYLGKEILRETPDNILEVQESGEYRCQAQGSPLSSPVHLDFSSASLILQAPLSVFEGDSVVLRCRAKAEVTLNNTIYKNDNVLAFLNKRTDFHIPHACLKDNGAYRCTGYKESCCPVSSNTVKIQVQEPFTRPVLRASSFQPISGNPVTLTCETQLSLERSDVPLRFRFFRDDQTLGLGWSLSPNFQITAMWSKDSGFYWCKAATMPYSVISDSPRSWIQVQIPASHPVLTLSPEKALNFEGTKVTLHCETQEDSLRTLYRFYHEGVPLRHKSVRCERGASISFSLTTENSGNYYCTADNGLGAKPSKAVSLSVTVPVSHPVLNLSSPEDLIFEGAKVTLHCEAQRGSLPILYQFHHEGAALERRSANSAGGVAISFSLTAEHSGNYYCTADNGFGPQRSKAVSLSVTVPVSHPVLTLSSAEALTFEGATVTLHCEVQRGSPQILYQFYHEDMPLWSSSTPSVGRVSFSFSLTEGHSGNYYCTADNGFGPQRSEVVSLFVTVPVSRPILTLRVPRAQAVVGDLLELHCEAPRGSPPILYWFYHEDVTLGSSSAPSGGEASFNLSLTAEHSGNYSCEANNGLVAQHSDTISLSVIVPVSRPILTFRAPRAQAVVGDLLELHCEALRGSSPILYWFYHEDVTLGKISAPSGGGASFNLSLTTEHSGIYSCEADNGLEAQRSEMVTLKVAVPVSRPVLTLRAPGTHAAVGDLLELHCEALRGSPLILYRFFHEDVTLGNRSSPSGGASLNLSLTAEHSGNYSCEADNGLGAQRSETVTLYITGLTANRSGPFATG
Briefly: SPR (BIACORE), antibody as ligand, HuFcRH5 as sample in stepwise injections, 25 °C, 1:1 binding model. In general terms: Surface plasmon resonance follows binding to a sensor surface in real time, without labels.

Assay [3] addresses T2, human CD3ε (human, UniProt P07766 23-126, limits assumed).
T2 construct: also called hCD3ε
Kind of assay: BIACORE and Scatchard, monovalent.

The target of assay [4] is T1, human FcRH5 protein fragment (soluble). Briefly: ELISA on FcRH5 (form of the coated FcRH5 not given). Background: In an ELISA, binding on a coated surface is turned into a signal by an enzyme label.
Assay [5] concerns the target T2, human CD3ε. Briefly: ELISA on CD3.
For assay [6], the target named is T2, human CD3ε. Kind of assay: BIACORE, monovalent.
The target of assay [7] is T2, human CD3ε. Kind of assay: assay not stated.
Assay [8] has as its target T1, human FcRH5 protein fragment (soluble). Kind of assay: SPR screening.
The target in assay [9] is T3, cynomolgus FcRH5 protein fragment (soluble) (cynomolgus monkey).
T3 construct: whole entry named; also called Cyno FcRH5 (BIACORE analyte)
T3 chain: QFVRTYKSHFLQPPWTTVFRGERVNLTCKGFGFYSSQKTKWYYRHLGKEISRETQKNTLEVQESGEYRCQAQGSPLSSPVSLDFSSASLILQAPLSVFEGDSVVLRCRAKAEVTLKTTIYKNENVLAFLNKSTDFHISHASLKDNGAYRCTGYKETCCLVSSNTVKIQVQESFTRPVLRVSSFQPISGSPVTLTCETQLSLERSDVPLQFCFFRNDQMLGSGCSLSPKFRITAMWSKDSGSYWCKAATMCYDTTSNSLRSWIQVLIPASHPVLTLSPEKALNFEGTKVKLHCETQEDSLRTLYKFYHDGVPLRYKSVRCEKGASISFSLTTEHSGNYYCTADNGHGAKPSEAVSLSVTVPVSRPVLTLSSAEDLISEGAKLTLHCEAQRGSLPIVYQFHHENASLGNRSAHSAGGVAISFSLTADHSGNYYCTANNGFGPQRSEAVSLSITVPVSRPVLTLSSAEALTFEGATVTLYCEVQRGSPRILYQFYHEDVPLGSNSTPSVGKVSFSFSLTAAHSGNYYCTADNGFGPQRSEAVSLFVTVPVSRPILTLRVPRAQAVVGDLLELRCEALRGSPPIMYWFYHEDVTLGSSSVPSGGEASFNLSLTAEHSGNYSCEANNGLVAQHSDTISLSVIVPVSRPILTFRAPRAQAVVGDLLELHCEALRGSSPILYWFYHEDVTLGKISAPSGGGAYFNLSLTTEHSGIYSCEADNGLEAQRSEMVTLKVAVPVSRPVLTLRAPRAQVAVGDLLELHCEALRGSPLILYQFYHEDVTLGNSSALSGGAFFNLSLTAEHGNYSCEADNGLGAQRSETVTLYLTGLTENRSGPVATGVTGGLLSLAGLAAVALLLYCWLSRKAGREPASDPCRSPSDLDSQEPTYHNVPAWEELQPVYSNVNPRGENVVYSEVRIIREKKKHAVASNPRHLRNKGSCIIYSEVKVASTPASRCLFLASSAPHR
Briefly: SPR (BIACORE), Cyno FcRH5, 1:1 binding model.

Assay [10] has as its target T3, cynomolgus FcRH5 protein fragment …. Kind of assay: BIACORE.
In assay [11] the target is T1, human FcRH5 protein fragment (soluble). Briefly: BIACORE.
The target is the same in assay [12]. Briefly: SPR (BIACORE), Human FcRH5, 1:1 binding model.

Changes are numbered by the printed parent chain. Names may count otherwise.

For orientation: koff means a measure of how fast the partners let go of each other. Higher therefore signals a short-lived complex. The term kon denotes the second-order rate constant of association. Higher therefore signals faster complex formation. The term Kd denotes the equilibrium constant for the complex coming apart. A lower Kd goes with higher affinity. The EC50 (read off the curve) is the concentration needed to bring the measured effect to its halfway point. A high value points to lower potency in that assay. The EC50 is the concentration that produces a half-maximal response. Low values mean greater potency, high ones weaker potency.

T2 sequence (P07766 23-126 limits assumed): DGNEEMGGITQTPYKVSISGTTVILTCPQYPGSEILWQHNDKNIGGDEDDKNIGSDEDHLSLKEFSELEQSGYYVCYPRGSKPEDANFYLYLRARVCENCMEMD

Turning to “anti-gD/UCHT1.v9 TDB (bispecific antibody)”, the target cell killing with the truncated FcRH5 construct, EC50 in assay [1] is 0.19 nM.

B1: h7D8.L1H2 (antibody)
heavy chain: EVQLVESGGGLVQPGGSLRLSCAVSGIDLSSYAMGWVRQAPGKGLEWIGTIGTGGTPYYASWAKGRFTISKDSSKNTVYLQMNSLRAEDTAVYFCARDMYTGSIYYDMWGQGTLVTVSS
light chain: DAQLTQSPSSLSASVGDRVTITCQSSQSVFNNAQLSWYQQKPGKPPKLLIYDTSNLASGVPSRFSGSGSGTDFTLTISSLQPEDFATYYCLGAYTDDADNAFGQGTKVEIK
notes: humanized, rabbit-derived anti-FcRH5 antibody; The sheet prints h7D8.L1H2* with an unexplained asterisk; also called hu7D8.L1H2; Hu7D8.L1H2
Take B1: in assay [2], the koff was determined as 0.00136 s⁻¹ and the association rate constant (kon) turned out to be 1.08e+06 M⁻¹ s⁻¹.

B2: UCHT1.v9 (antibody, V domains shown)
VH: EVQLVESGGGLVQPGGSLRLSCAASGYSFTGYTMNWVRQAPGKDLEWVALINPYKGVSTYNQKFKDRFTISVDKSKNTAYLQMNSLRAEDTAVYYCARSGYYGDSDWYFDVWGQGTLVTVSS
VL: DIQMTQSPSSLSASVGDRVTITCRASQDIRNYLNWYQQKPGKAPKLLIYYTSRLESGVPSRFSGSGSGTDYTLTISSLQPEDFATYYCQQGNTLPWTFGQGTKLELK
notes: humanized anti-CD3; also called huUCHT1.v9
As to B2, in [3], the Kd worked out at 2.5 nM.

B3: bis-Fab B (bispecific antibody, V domains shown)
VH 1: EVQLVESGPGLVKPSETLSLTCTVSGFSLTRFGVHWVRQPPGKGLEWLGVIWRGGSTDYNAAFVSRLTISKDNSKNQVSLKLSSVTAADTAVYYCSNHYYGSSDYALDNWGQGTLVTVSS
VL 1: DIQMTQSPSSLSASVGDRVTITCKASQDVRNLVVWFQQKPGKAPKLLIYSGSYRYSGVPSRFSGSGSGTDFTLTISSLQPEDFATYYCQQHYSPPYTFGQGTKVEIK
VH 2: EVQLVQSGAEVKKPGASVKVSCKASGFTFTSYYIHWVRQAPGQGLEWIGWIYPENDNTKYNEKFKDRVTITADTSTSTAYLELSSLRSEDTAVYYCARDGYSRYYFDYWGQGTLVTVSS
VL 2: DIVMTQSPDSLAVSLGERATICCKSSQSLLNSRTRKNYLAWYQQKPGQSPKLLIYWTSTRKSGVPDRFSGSGSGTDFTLTISSLQAEDVAVYYCKQSFILRTFGQGTKVEIK
notes: bis-Fab: 1G7.v85 Fab (HC A114C, constant part) crosslinked to 38E4.v1 Fab (LC N22C)
Regarding B3, the concentration for a half-maximal effect (EC50 (read off the curve)) was approximately 10 ng/mL in assay [4] and approximately 7 ng/mL in assay [5].

B4: 38E4.v1 (antibody, V domains shown)
VH: B3 VH 2
VL: B3 VL 2 with C22N
notes: humanized anti-CD3ε; also called anti-CD3 arm 38E4.v1
Turning to B4, the affinity in assay [6], expressed as Kd, was 0.5 nM. This molecule gave an EC50 in assay [7] of 1 nM.

B5: 40G5c (antibody, V domains shown)
VH: B3 VH 2 with F27Y, S31N, E54G, N55D, D56G, D66G, V68A, I70L, G100S, R103N
VL: B3 VL 2 with C22N, S49P, T57A, K61E, K95T
notes: humanized anti-CD3ε; also called hu40G5c
Regarding B5, binding in [6] was put at a Kd of 51 nM. The EC50 in assay [7] is 13 nM.

B6: hu1G7.v1 with heavy chain L29T and S56T (antibody, V domains shown)
VH: B3 VH 1 with L29T, S56T, V64M
VL: B3 VL 1 with R30S, L32I, A43S, G51A, S56T, P94S
notes: also called L29T/S56T double mutant
With B6, in assay [8], the “average fold improvement in affinity” value turned out to be 1.2 fold.

B7: hu1G7.v93/38E4.v1 TDB (bispecific antibody, V domains shown)
VH 1: B3 VH 1 with L29T, S103P
VL 1: B3 VL 1 with R30S
VH 2: B3 VH 2
VL 2: B3 VL 2 with C22N
notes: knob-into-hole TDB; also called 1G7.v93 TDB
As to B7, the Kd turned out to be 8.08 nM in assay [9], 8.1 nM in assay [10] and 1.1 nM in assay [11]. For the same molecule, the koff turned out to be 0.000417 s⁻¹ in assay [9] and 0.000421 s⁻¹ in [12]. Further, the kon in assay [9] came out at 51600 M⁻¹ s⁻¹; in assay [12], 395000 M⁻¹ s⁻¹.

B8: bis-Fab D (bispecific antibody, V domains shown)
VH 1: B3 VH 1
VL 1: B3 VL 1
VH 2: B3 VH 2
VL 2: B3 VL 2
notes: bis-Fab: 1G7.v85 Fab (LC A149C, constant part) crosslinked to 38E4.v1 Fab (LC N22C)
B8: the “EC50 (read off the curve)” value in assay [4] was approximately 10 ng/mL; in [5] it was approximately 7 ng/mL.

B9: F(ab′)2 A (bispecific antibody, V domains shown)
VH 1: B3 VH 1
VL 1: B3 VL 1
VH 2: B3 VH 2
VL 2: B3 VL 2 with C22N
As for B9, the “EC50 (read off the curve)” value in assay [4] was approximately 50 ng/mL; in [5], approximately 0.7 ng/mL.

B10: 38E4.v11 (antibody, V domains shown)
VH: B3 VH 2
VL: B3 VL 2 with C22N, K95T
notes: humanized anti-CD3ε
B10: a half-maximal response in [7] (EC50) required 0.05 nM.
